# B1: Purified recombinant human ADAMTS13 (rADAMTS13, Takeda, Vienna, Austria) from a Chinese hamster ovary cell line (protein)
# chain: AAGGILHLELLVAVGPDVFQAHREDTERYVLTNLNIGAELLRDPSLGAQFRVHLVKMVILTEPEGAPNITANLTSSLLSVCGWSQTINPEDDTDPGHADLVLYITRFDLELPDGNRQVRGVTQLGGACSPTWSCLITEDTGFDLGVTIAHEIGHSFGLEHDGAPGSGCGPSGHVMASDGAAPRAGLAWSPCSRRQLLSLLSAGRARCVWDPPRPQPGSAGHPPDAQPGLYYSANEQCRVAFGPKAVACTFAREHLDMCQALSCHTDPLDQSSCSRLLVPLLDGTECGVEKWCSKGRCRSLVELTPIAAVHGRWSSWGPRSPCSRSCGGGVVTRRRQCNNPRPAFGGRACVGADLQAEMCNTQACEKTQLEFMSQQCARTDGQPLRSSPGGASFYHWGAAVPHSQGDALCRHMCRAIGESFIMKRGDSFLDGTRCMPSGPREDGTLSLCVSGSCRTFGCDGRMDSQQVWDRCQVCGGDNSTCSPRKGSFTAGRAREYVTFLTVTPNLTSVYIANHRPLFTHLAVRIGGRYVVAGKMSISPNTTYPSLLEDGRVEYRVALTEDRLPRLEEIRIWGPLQEDADIQVYRRYGEEYGNLTRPDITFTYFQPKPRQAWVWAAVRGPCSVSCGAGLRWVNYSCLDQARKELVETVQCQGSQQPPAWPEACVLEPCPPYWAVGDFGPCSASCGGGLRERPVRCVEAQGSLLKTLPPARCRAGAQQPAVALETCNPQPCPARWEVSEPSSCTSAGGAGLALENETCVPGADGLEAPVTEGPGSVDEKLPAPEPCVGMSCPPGWGHLDATSAGEKAPSPWGSIRTGAQAAHVWTPAAGSCSVSCGRGLMELRFLCMDSALRVPVQEELCGLASKPGSRREVCQAVPCPARWQYKLAACSVSCGRGVVRRILYCARAHGEDDGEEILLDTQCQGLPRPEPQEACSLEPCPPRWKVMSLGPCSASCGLGTARRSVACVQLDQGQDVEVDEAACAALVRPEASVPCLIADCTYRWHVGTWMECSVSCGDGIQRRRDTCLGPQAQAPVPADFCQHLPKPVTVRGCWAGPCVGQGTPSLVPHEEAAAPGRTTATPAGASLEWSQARGLLFSPAPQPRRLLPGPQENSVQSSACGRQHLEPTGTIDMRGPGQADCAVAIGRPLGEVVTLRVLESSLNCSAGDMLLLWGRLTWRKMCRKLLDMTFSSKTNTLVVRQRCGRPGGGVLLRYGSQLAPETFYRECDMQLFGPWGEIVSPSLSPATSNAGGCRLFINVAPHARIAIHALATNMGAGTEGANASYILIRDTHSLRTTAFHGQQVLYWESESSQAEMEFSEGFLKAQASLRGQYWTLQSWVPEMQDPQSWKGKEGT
# Target: von Willebrand factor (VWF) in plasma of patients with severe COVID-19, P04275
protein,measurement,value
B1,"Decrease (%) of VWF:CB 0 vs. 5 hrs, plasma B1",65%
same,"Decrease (%) of VWF:CB 0 vs. 5 hrs, plasma B2",60%
same,"Decrease (%) of VWF:CB 0 vs. 5 hrs, plasma B5",65%
same,"Decrease (%) of VWF:CB 0 vs. 5 hrs, plasma B7",52%
same,"Decrease (%) of VWF:CB 0 vs. 5 hrs, plasma B15",44%
same,"Decrease (%) of VWF:CB 0 vs. 5 hrs, plasma B18",63%
same,"Decrease (%) of VWF:CB 0 vs. 5 hrs, plasma S6",33%
same,"Decrease (%) of VWF:CB 0 vs. 5 hrs, plasma S10",60%
same,"Decrease (%) of VWF:CB 0 vs. 5 hrs, plasma S12",53%
same,"Decrease (%) of VWF:CB 0 vs. 5 hrs, plasma S21",44%
same,"Dimer relative to total multimer content (AUC %) at 0 hrs, plasma B1",3.6 AUC %
same,"Dimer relative to total multimer content (AUC %) at 0 hrs, plasma B2",5.4 AUC %
same,"Dimer relative to total multimer content (AUC %) at 0 hrs, plasma B5",3.7 AUC %
same,"Dimer relative to total multimer content (AUC %) at 0 hrs, plasma B7",5.3 AUC %
same,"Dimer relative to total multimer content (AUC %) at 0 hrs, plasma B15",5.1 AUC %
same,"Dimer relative to total multimer content (AUC %) at 0 hrs, plasma B18",3.6 AUC %
same,"Dimer relative to total multimer content (AUC %) at 0 hrs, plasma S6",5.4 AUC %
same,"Dimer relative to total multimer content (AUC %) at 0 hrs, plasma S21",4.9 AUC %
same,"Dimer relative to total multimer content (AUC %) at 5 hrs, plasma B1",9.1 AUC %
same,"Dimer relative to total multimer content (AUC %) at 5 hrs, plasma B2",11.3 AUC %
same,"Dimer relative to total multimer content (AUC %) at 5 hrs, plasma B5",11 AUC %
same,"Dimer relative to total multimer content (AUC %) at 5 hrs, plasma B7",10.1 AUC %
same,"Dimer relative to total multimer content (AUC %) at 5 hrs, plasma B15",12.3 AUC %
same,"Dimer relative to total multimer content (AUC %) at 5 hrs, plasma B18",7 AUC %
same,"Dimer relative to total multimer content (AUC %) at 5 hrs, plasma S6",7 AUC %
same,"Dimer relative to total multimer content (AUC %) at 5 hrs, plasma S21",8.5 AUC %
same,"Increase (%) of dimer 0 vs. 5 hrs, plasma B1",253%
same,"Increase (%) of dimer 0 vs. 5 hrs, plasma B2",209%
same,"Increase (%) of dimer 0 vs. 5 hrs, plasma B5",297%
same,"Increase (%) of dimer 0 vs. 5 hrs, plasma B7",191%
same,"Increase (%) of dimer 0 vs. 5 hrs, plasma B15",241%
same,"Increase (%) of dimer 0 vs. 5 hrs, plasma B18",194%
same,"Increase (%) of dimer 0 vs. 5 hrs, plasma S6",130%
same,"Increase (%) of dimer 0 vs. 5 hrs, plasma S21",173%
same,"UHMW VWF multimers by semi-automated electrophoresis, plasma B1, 10 IU/mL rADAMTS13",disappearance of all the abnormal UHMW VWF multimers
same,"UHMW multimer quantitation parameter after 5 h with 10 IU/mL rADAMTS13, plasma B1",to a level lower than that observed in control plasma (88%)
same,"UHMW multimer quantitation parameter before incubation, plasma B1 (home cast gels)",the elevated UHMW multimer quantitation parameter of 124%
same,"VWF:CB (IU/mL) at 0 hrs, plasma B1, 1 IU/mL rADAMTS13",3.09 IU/mL
same,"VWF:CB (IU/mL) at 0 hrs, plasma B2, 1 IU/mL rADAMTS13",1.39 IU/mL
same,"VWF:CB (IU/mL) at 0 hrs, plasma B5, 1 IU/mL rADAMTS13",2.46 IU/mL
same,"VWF:CB (IU/mL) at 0 hrs, plasma B7, 1 IU/mL rADAMTS13",3.03 IU/mL
same,"VWF:CB (IU/mL) at 0 hrs, plasma B15, 1 IU/mL rADAMTS13",2.44 IU/mL
same,"VWF:CB (IU/mL) at 0 hrs, plasma B18, 1 IU/mL rADAMTS13",2.25 IU/mL
same,"VWF:CB (IU/mL) at 0 hrs, plasma S6, 1 IU/mL rADAMTS13",2.19 IU/mL
same,"VWF:CB (IU/mL) at 0 hrs, plasma S10, 1 IU/mL rADAMTS13",6.48 IU/mL
same,"VWF:CB (IU/mL) at 0 hrs, plasma S12, 1 IU/mL rADAMTS13",3.01 IU/mL
same,"VWF:CB (IU/mL) at 0 hrs, plasma S21, 1 IU/mL rADAMTS13",3.7 IU/mL
same,"VWF:CB (IU/mL) at 5 hrs, plasma B1, 1 IU/mL rADAMTS13",2.02 IU/mL
same,"VWF:CB (IU/mL) at 5 hrs, plasma B2, 1 IU/mL rADAMTS13",0.84 IU/mL
same,"VWF:CB (IU/mL) at 5 hrs, plasma B5, 1 IU/mL rADAMTS13",1.61 IU/mL
same,"VWF:CB (IU/mL) at 5 hrs, plasma B7, 1 IU/mL rADAMTS13",1.58 IU/mL
same,"VWF:CB (IU/mL) at 5 hrs, plasma B15, 1 IU/mL rADAMTS13",1.08 IU/mL
same,"VWF:CB (IU/mL) at 5 hrs, plasma B18, 1 IU/mL rADAMTS13",1.42 IU/mL
same,"VWF:CB (IU/mL) at 5 hrs, plasma S6, 1 IU/mL rADAMTS13",0.73 IU/mL
same,"VWF:CB (IU/mL) at 5 hrs, plasma S10, 1 IU/mL rADAMTS13",3.91 IU/mL
same,"VWF:CB (IU/mL) at 5 hrs, plasma S12, 1 IU/mL rADAMTS13",1.6 IU/mL
same,"VWF:CB (IU/mL) at 5 hrs, plasma S21, 1 IU/mL rADAMTS13",1.63 IU/mL
same,mean VWF:CB of ten patient samples after 5 h incubation with 1 IU/mL rADAMTS13,decreased from 3.01 (SD: 1.37; SEM: 0.434) to 1.64 (SD: 0.89; SEM 0.28) IU/mL
same,mean VWF:CB of ten patient samples before incubation with 1 IU/mL rADAMTS13,decreased from 3.01 (SD: 1.37; SEM: 0.434) to 1.64 (SD: 0.89; SEM 0.28) IU/mL
same,"reduction in VWF activity at 5 h, plasma B1, 10 IU/mL rADAMTS13",more than a 60% reduction at 5 h
same,"reduction in VWF activity within 5 h, plasma B1, 1 IU/mL rADAMTS13","within 5 h, VFW activity reduced by about 30%"
same,"reduction of the UHMW multimer quantitation parameter after 5 h with 1 IU/mL rADAMTS13, plasma B1",reduced by 16% after 5 h of incubation with 1 IU/mL rADAMTS13
same,"reduction of the UHMW multimer quantitation parameter after 5 h with 10 IU/mL rADAMTS13, plasma B1",by 36% with 10 IU/mL rADAMTS13

# — patent US20230201319
